This note sets out measurements from publication doi:10.1101/2020.01.24.918722, “Calsyntenin-3 directly interacts with neurexins to orchestrate excitatory synapse development in the hippocampus” (bioRxiv, 2020).

First the molecules themselves.
B2: Ig-mNrxn1β^+SS4 (Fc fusion)
chain: not shown
notes: signal peptide in the construct; extracellular region of mouse neurexin-1β with the SS4 insert, aa 1-389; also called Ig-Nrxn1β^+SS4; pCMV-IgC-mNrxn1β^+SS4; source: HEK293T, purified (protein A-Sepharose)

Assay [1] concerns the target B2. The assay can be described thus: pull-down; direct protein-interaction assay: 10 μg purified Ig-Nrxn1 with 4 μg purified His-HA-Clstn3, 2 h at 4°C, 25 mM Tris pH 7.5, 30 mM MgCl2, 40 mM NaCl, 0.5% Triton X-100; precipitated with Talon resin, blot with anti-human IgG. As to conditions: both partners purified.
The target of assay [2] is T1, His-HA-Clstn3 Ecto (extracellular domain of mouse Clstn3) (mouse, UniProt Q99JH7 21-846).
T1 construct: extracellular domain of mouse calsyntenin-3, aa 21-846; also called His-HA-Clstn3 Full (methods); source: purified recombinant protein (pCAGGS vector); not shown: His6, N-terminal, kept; HA, N-terminal, kept
T1 sequence (looked up): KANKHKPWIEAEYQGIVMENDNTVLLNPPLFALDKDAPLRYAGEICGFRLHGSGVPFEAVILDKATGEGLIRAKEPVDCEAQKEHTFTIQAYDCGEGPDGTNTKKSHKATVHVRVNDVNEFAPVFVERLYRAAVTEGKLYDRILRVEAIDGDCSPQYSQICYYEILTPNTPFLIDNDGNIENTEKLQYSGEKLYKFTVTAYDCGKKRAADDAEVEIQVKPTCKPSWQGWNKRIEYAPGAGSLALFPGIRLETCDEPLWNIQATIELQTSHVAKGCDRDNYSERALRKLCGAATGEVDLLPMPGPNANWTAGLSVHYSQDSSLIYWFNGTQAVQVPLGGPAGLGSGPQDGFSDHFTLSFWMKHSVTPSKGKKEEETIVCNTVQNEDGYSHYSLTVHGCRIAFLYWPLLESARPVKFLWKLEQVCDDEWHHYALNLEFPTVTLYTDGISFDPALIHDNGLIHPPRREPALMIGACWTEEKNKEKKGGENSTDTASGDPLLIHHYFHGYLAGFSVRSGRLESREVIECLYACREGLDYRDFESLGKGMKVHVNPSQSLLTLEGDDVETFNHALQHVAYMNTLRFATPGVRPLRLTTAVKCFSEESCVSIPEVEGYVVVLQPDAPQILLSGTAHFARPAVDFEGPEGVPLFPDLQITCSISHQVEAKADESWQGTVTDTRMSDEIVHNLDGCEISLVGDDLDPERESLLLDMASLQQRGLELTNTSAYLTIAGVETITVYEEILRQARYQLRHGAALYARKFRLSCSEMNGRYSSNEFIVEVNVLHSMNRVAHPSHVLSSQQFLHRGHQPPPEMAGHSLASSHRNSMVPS
The description is as above. The following applies: both partners purified.

B1: His-HA-Clstn3 Cad (extracellular, cadherin domains) (domain or fragment, mouse, UniProt Q99JH7 21-269, looked up)
chain: KANKHKPWIEAEYQGIVMENDNTVLLNPPLFALDKDAPLRYAGEICGFRLHGSGVPFEAVILDKATGEGLIRAKEPVDCEAQKEHTFTIQAYDCGEGPDGTNTKKSHKATVHVRVNDVNEFAPVFVERLYRAAVTEGKLYDRILRVEAIDGDCSPQYSQICYYEILTPNTPFLIDNDGNIENTEKLQYSGEKLYKFTVTAYDCGKKRAADDAEVEIQVKPTCKPSWQGWNKRIEYAPGAGSLALFPGIR
notes: mouse calsyntenin-3, aa 21-269 (cadherin domains); source: purified recombinant protein (pCAGGS vector); not shown: His6, N-terminal, kept; HA, N-terminal, kept
Regarding B1, the binding result in assay [1] was “binds”.

For B2, in assay [2], the binding result is recorded as “binds”.
